Assay results taken from paper PMC9504981.

Biological target: 10×Histidine-tagged amino acids 1-416 of potato virus X RNA-dependent RNA polymerase, 10×His-MET_(1-416) (potato virus X)
Assay: cross-linking

For “10×Histidine-tagged amino acids 1-416 of potato virus X RNA-dependent RNA polymerase, 10×His-MET_(1-416) (domain or fragment)”, the stoichiometry N was > 5.
